Results on twelve molecules are retold here after patent US20180016312A1 (Pieris, published 2018).

Changes are numbered by the printed parent chain.

The chains are these.
T1: human angiopoietin-2 (human, UniProt O15123 19-496, limits assumed)
T1 sequence (looked up): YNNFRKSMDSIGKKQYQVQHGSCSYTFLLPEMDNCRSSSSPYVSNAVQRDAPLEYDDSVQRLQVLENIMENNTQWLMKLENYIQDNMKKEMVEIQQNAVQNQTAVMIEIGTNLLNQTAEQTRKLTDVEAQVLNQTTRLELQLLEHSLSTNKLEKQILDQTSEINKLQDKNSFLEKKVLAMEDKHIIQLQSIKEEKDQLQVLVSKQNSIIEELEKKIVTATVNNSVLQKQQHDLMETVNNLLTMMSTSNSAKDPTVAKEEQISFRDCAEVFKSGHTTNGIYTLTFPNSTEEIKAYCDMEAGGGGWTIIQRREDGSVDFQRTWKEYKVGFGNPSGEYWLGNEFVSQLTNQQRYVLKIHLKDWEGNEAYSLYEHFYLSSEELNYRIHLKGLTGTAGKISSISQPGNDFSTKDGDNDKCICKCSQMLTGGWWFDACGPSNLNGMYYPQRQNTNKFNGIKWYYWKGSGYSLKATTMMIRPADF

T2: mouse angiopoietin-2 (mouse, UniProt O35608 19-496, limits assumed)
T2 construct: Bought recombinant protein; also called mouse Ang-2; mAng-2
T2 sequence (looked up): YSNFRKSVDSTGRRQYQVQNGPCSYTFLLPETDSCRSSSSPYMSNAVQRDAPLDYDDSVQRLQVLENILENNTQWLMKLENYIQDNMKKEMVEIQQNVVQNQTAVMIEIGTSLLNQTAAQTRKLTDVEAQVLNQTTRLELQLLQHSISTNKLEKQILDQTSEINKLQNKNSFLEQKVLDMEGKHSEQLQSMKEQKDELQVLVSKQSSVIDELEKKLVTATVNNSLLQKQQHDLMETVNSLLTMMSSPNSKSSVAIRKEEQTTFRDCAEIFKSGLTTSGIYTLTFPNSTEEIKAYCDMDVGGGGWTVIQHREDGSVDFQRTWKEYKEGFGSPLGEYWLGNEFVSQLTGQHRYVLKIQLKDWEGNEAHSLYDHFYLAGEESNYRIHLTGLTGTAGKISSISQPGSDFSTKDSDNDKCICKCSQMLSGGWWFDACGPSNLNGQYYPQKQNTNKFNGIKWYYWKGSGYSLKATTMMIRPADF

B1: benchmark antibody 1 (SEQ ID NOs: 17/18) (antibody, human IgG1, lambda, V domains shown)
VH: not shown
VL: QPGLTQPPSVSVAPGQTARITCGGNNIGSKSVHWYQQKPGQAPVLVVYDDSDRPSGIPERFSGSNSGNTATLTISRVEAGDEADYYCQVWDSSSDHYVFGTGTKVTVLG
B2: hNGAL lipocalin mutein SEQ ID NO: 9 (designed binder)
chain: QDSTSDLIPAPPLSKVPLQQNFQDNQFHGKWYVVGHAGNYILREDKDPGKMWATIYELKEDKSYDVTEVSFGPKKCNYRIWTFVPGSQPGEFTLGGIKSPPGGTSTLVRVVSTNYNQHAMVFFKHVLQNREFFEITLYGRTKELTSELKENFIRFSKSLGLPENHIVFPVPIDQCIDGSAWSHPQFEK
notes: Mutein of mature hNGAL; Biotinylated with NHS-PEG4-Biotin for the SPR assay
B3: hNGAL lipocalin mutein SEQ ID NO: 1 (designed binder)
chain: B2 chain with H36Q, D65N, E68G, R79T
notes: Mutein of mature hNGAL
B4: hNGAL lipocalin mutein SEQ ID NO: 3 (designed binder)
chain: QDSTSDLIPAPPLSKVPLQQNFQDNQFHGKWYVVGVAGNWYLREDKDPIKMTATIYELKEDKSYNVTQVGFEQKKCKYSIHTFVPGSQPGEFTLGDIKSWPGDTSLLVRVVSTNYNQHAMVFFKGVMQNREVFAITLYGRTKELTSELKENFIRFSKSLGLPENHIVFPVPIDQCIDGSAWSHPQFEK
notes: Mutein of mature hNGAL
B5: hNGAL lipocalin mutein SEQ ID NO: 5 (designed binder)
chain: QDSTSDLIPAPPLSKVPLQQNFQDNQFHGKWYVVGQAGNYWLREDKDPIKMSATIYELKEDKSYNVTIVYFTRKKCSYRIYTFVPGSQPGEFTLGPIKSYPGDTSTLVRVVSTNYNQHAMVFFKHVYQNREWFEITLYGRTKELTSELKENFIRFSKSLGLPENHIVFPVPIDQCIDGSAWSHPQFEK
notes: Mutein of mature hNGAL
B6: hNGAL lipocalin mutein SEQ ID NO: 2 (designed binder)
chain: QDSTSDLIPAPPLSKVPLQQNFQDNQFHGKWYVVGFAGNHRLREDKDPGKMHATIYELKEDKSYNVTDVTFAFKKCNYRIHTFVPGSQPGEFTLGNIKSWPGETSTLVRVVSTNYNQHAMVFFKTVMQNREWFWITLYGRTKELTSELKENFIRFSKSLGLPENHIVFPVPIDQCIDGSAWSHPQFEK
notes: Mutein of mature hNGAL
B7: hNGAL lipocalin mutein SEQ ID NO: 10 (designed binder)
chain: B2 chain with H36Q, G49Q, E68G, P73A, N77V
notes: Mutein of mature hNGAL
B8: hNGAL lipocalin mutein SEQ ID NO: 6 (designed binder)
chain: B2 chain with H36Q, G49E, E68G, P100S, G103Q
notes: Mutein of mature hNGAL
B9: hNGAL lipocalin mutein SEQ ID NO: 13 (designed binder)
chain: B4 chain with N65D, K74E, L106P, V126M, N129D
notes: Mutein of mature hNGAL
B10: hNGAL lipocalin mutein SEQ ID NO: 12 (designed binder)
chain: B4 chain with N65D, K74E, D96N, L106P, N116D, N129D
notes: Mutein of mature hNGAL
B11: hNGAL lipocalin mutein SEQ ID NO: 14 (designed binder)
chain: B4 chain with V36M, Y41D, N65D, G70A, D96Q, L106P
notes: Mutein of mature hNGAL
B12: hNGAL lipocalin mutein SEQ ID NO: 4 (designed binder)
chain: QDSTSDLIPAPPLSKVPLQQNFQDNQFHGKWYVVGEAGNVELREDKDPVKMTATIYELKEDKSYNVTEVRFWLKKCKYNIHTFVPGSQPGEFTLGAIKSGPGMTSTLVRVVSTNYNQHAMVFFKTVMQNREWFWITLYGRTKELTSELKENFIRFSKSLGLPENHIVFPVPIDQCIDGSAWSHPQFEK
notes: Mutein of mature hNGAL

One assay concerns the target T1, human angiopoietin-2. The assay is described as follows: cell-based or functional assay.
With B1, the “IC50 mean, LEC proliferation assay (CellTiter-Glo)” value was 0.0668 nM.
On the same count and under the same terms, under B2 stands 0.142 nM; under B3, 2.25 nM; under B4, 2.81 nM.

A further assay deals with T1, human angiopoietin-2. Kind of assay: ELISA; Ang-2 coated, mutein detected by anti-Streptag-HRP. Here is the method:
Binding of muteins was tested by a sandwich ELISA assay.
20 μl of serially diluted muteins were incubated in PBS-T/BSA for 1h at room temperature (RT).
The residual supernatants were discarded and 20 μl HRP-labeled anti-Streptag antibody was added at a predetermined optimal concentration in PBS-T/BSA and incubated for 1 h at RT. After washing, 20 μl fluorogenic HRP substrate (QuantaBlu, Thermo) was added to each well, and the reaction was allowed to proceed for 15 to 60 minutes. The fluorescence intensity of every well on the plate was read using a fluorescence microplate reader (Tecan or Molecular Devices). Curve fitting was performed using GraphPad Prism 4 software.
In general, EC50 refers to the concentration that produces a half-maximal response. The low end stands for higher potency in that assay, the high end for lower potency in that assay. For the molecule B2, the EC50 was 2.1 nM.
Molecule B3 came in with an EC50 of 3.7 nM.
B4: the EC50 worked out at 2.8 nM.
B5: the EC50 is 3.5 nM.
B6 came in with an EC50 of 3 nM.

In the next assay the target is T1, human angiopoietin-2. The assay is described as follows: SPR Biacore T200; biotinylated mutein captured, hAng-2 analyte, 1:1 model, 25 C. On the procedure:
In the SPR affinity assay, biotinylated muteins and negative control were captured on a sensor chip CAP using the Biotin CAPture Kit (GE Healthcare): Sensor Chip CAP is pre-immobilized with an ssDNA oligo. Undiluted Biotin CAPture Reagent (streptavidin conjugated with the complementary ss-DNA oligo) was applied at a flow rate of 2 μl/min for 300 s. Subsequently, 0.02 μg/mL of biotinylated muteins or negative control were applied for 300 s at a flow rate of 5 μl/min. […] The reference channel was loaded with Biotin CAPture Reagent only.
Applying a flow rate of 30 μL/min, a multi cycle kinetics approach was used with a sample contact time of 180 s and a dissociation time of 4600 s. All measurements were performed at 25° C. […] Data were evaluated with Biacore T200 Evaluation software (V 1.0). Double referencing was used. A 1:1 Binding model was used to fit the raw data even though the analyte was known to be a multimer.
(In general: In SPR one partner is held on a chip, and binding of the other changes the refractive index at the surface.)
In general, Kd refers to a measure of binding affinity in units of concentration. Read a high Kd as lower affinity. What is called koff is a measure of how fast the partners let go of each other. Low readings indicate a long-lived complex, high ones a short-lived complex. B2 displayed a Kd of 0.29 nM and a koff of 9.4e-05 s⁻¹.

The target of another assay is T1, human angiopoietin-2. Kind of assay: competition ELISA; 0.5 nM hAng-2 pre-incubated with binder, free hAng-2 captured on hTie-2 Fc (competitor). On the procedure:
All incubation steps were performed with shaking at 300 rpm, and the plate was washed after each incubation step with 80 μl PBS-T buffer (PBS, 0.05% Tween 20) for five times using a Biotek EL405 select CW washer (Biotek). In the first step, a 384 well plate was directly coated with 20 μl of soluble human hTie-2 Fc (Reliatech) at a concentration of […] in PBS over night at 4 ° C. After washing, h Tie-2 Fc coated wells were blocked with 60 μl PBS-T/BSA (2% BSA in PBS containing 0.1% Tween 20) for 1 h at room temperature.
Curve fitting was performed using GraphPad Prism 4 software.
A general note: An ELISA detects its analyte on a solid surface through an enzyme-linked reagent.
What is called IC50 is the concentration needed to halve the response being measured. B1: the IC50 worked out at 0.0158 nM.
The same measure, in the same setting: under B2 stands 0.0929 nM.
Take B3: the IC50 was found to be 0.558 nM.
B7 returned an IC50 of 0.0794 nM.
On the same count and under the same terms, under B8 stands 0.0627 nM.
Turning to B9, the IC50 was found to be 0.184 nM.
The molecule B10 showed an IC50 of 0.131 nM.
Still for that read-out and setting: under B4 stands 0.319 nM; under B11, 0.105 nM.
On the same count and under the same terms, under B5 stands 0.861 nM; under B12, 0.412 nM.
Still for that read-out and setting: under B6 stands 1.71 nM.

The target of a further assay is T1, human angiopoietin-2. The assay is described as follows: competition cell ECL; hAng-2 pre-incubated with binder, free Ang-2 captured on HEK:hTie-2 cells (competitor). Here is the method:
(§1) All incubation steps were performed at room temperature, and the plate was washed after each incubation step with 80 μl PBS buffer for two times using a Biotek EL405 select CW washer (Biotek). In the first step, a 384 well plate was precoated for 5 minutes with poly D lysine and washed twice with PBS. 10⁴ HEK:hTie-2 cells per well were seeded and allowed to adhere to the surface of the wells overnight at 37° C. . After washing, cell coated wells were blocked with 60 μl PBS/Casein (2% Casein in PBS) for 1 h at room temperature.
(§2) After washing, 35 μl surfactant-free reading buffer was added to each well and the ECL signal of every well was read using a Mesoscale Discovery reader.
B2 returned an IC50 of 3.82 nM.
B3 returned an IC50 of 18.9 nM.
Molecule B7 yielded an IC50 of 4.63 nM.
Still for that read-out and setting: under B8 stands 3.46 nM; under B9, 5.43 nM.
Still for that read-out and setting: under B10 stands 5.29 nM; under B4, 10.7 nM.
Take B11: the IC50 is 6.41 nM.

The target of the next assay is T2, mouse angiopoietin-2. The assay is described as follows: competition cell ECL; mAng-2 pre-incubated with binder, free Ang-2 captured on HEK:hTie-2 cells (competitor). On the procedure:
as §1, §2
B2 yielded an IC50 of 1.39 nM.
B3 came in with an IC50 of 3.98 nM.
Same read-out and setting: under B7 stands 1.05 nM; under B8, 1.21 nM; under B9, 7.34 nM.
B10 registered an IC50 of 3.12 nM.
Consider B4, for which the IC50 stood at 23.2 nM.
Still for that read-out and setting: under B11 stands 2.32 nM.
